# Test results from the nanobody polyreactivity screen of Harvey et al. (2022).
# Test: yeast display, Sf9 membrane polyspecificity reagent, FACS + sequencing; frameworks hold sequencing errors
# In short: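 A synthetic nanobody library was expressed on Saccharomyces cerevisiae BJ5465 by galactose induction for 36–48 hours. The library was stained for 1 hour at 4 °C with 10% biotinylated, detergent-solubilized Sf9 membrane reagent and enriched with streptavidin microbeads before FACS. Low and high (top ~1%) gates were set on anti-HA fluorescence for expression and streptavidin fluorescence for reagent binding, and each polyreactivity label reflects the gate of origin.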
row,Sequence,polyreactivity (PSR sort gate)
1,QVQLVESGGGLVQAGGSLRLSCAASGFTFRYYVMGWYRQAPGKERELVAAISTRGGRTYYADSVKGRFTISRDNAKNTVYLQMNSLKPEDTAVYYCAKDAHHSYTWGYGYWGQGTQVTVSS,high polyreactivity
2,QVQLVESGGGLVQAGGSLRLSCAAYGSTFTRYTMGWYRQAPGKDRELVASSTRTGSTNYADSVKGRFTISRDNAKNTVYLQMYSLKPEDTAVYYCAGGRYYSYRFSFGYWGQGTQVTVSS,high polyreactivity
3,QVQLVESGGGLVQAGGTLRLSCDASGRTFHVYAMGWYRHAPGKERELVAAISGRTGSTYYADSVKGRFTISRDIAKNTVYLQMNSLKPEDTAVYYCAKGYSYGWWGGFGYWGQGTQVTVSS,high polyreactivity
4,QVQLVESGGGIVQAGGSLRLSCAASGFTFHTYAMGWYRQAPGKERELVAAISYSGGNTYYADSVKGRFTISRDNAMNTVYLQMNSLKPEDTAVYYCAAQSYYRYYWGQGTQVTVSS,high polyreactivity
5,QVQLVESGGGLVQAGGSLRLSCAASGSIFYRYDMGWYRQAPGKERELVADISWSSGRTYYADSVKGRFTISRDNAKNTVYLQMNSLKPEDTAVYYCATDDFWNVKFYAYYPEFDYWGQGSQVTVSS,low polyreactivity
6,QVQLVESGGGLVQAGGSLRLSCAASGSTFPDYAMGWYRQAPGKERELVAAIDGSSGSTYYADSVKGRFTISRDNAKNSVYLRMYSLKPEDTAVYYCNVVASLYTYGYWGQGTQVTVSS,low polyreactivity
7,QVQLVESGGGLVQAGGSLRLSCAASGLTFVLYAMGWYRQAPGKERELVAAISKRGGSTNYADSVKGRFTISRDIAKNTVYLQMNSLKPEDTAVYYCAARYPQGGTGKATYVRSRSGYWGQGTKVTVSS,high polyreactivity
8,QVQLVESGGGLVQAGGSLRLSCAASGSISGYNAMGWYRQAPGKERELVAVITTDGSTNYADSVKGRFTISRDNAKNTVYLQMNSLKPEDTAVYYCNTDDGWRLLWEYDYWGQGTQVTVSS,low polyreactivity
9,QVQLVESGGGLVQAGGSLRLSCAASGYSFSYNAMGWYRQAPGKERELVAAMSRTGGSTNYADSVKGRFTISRDHAKKTVDLQMNSLKPEDTAVYDCAKRYRYPSWGEYGYWGLGTQVTVSS,high polyreactivity
10,QVQLVESGGGLVQAGGSLRLSCAASGRIFRYYAMGWYRQAPGKEMELVAAITRGGSTNYADSVKGRFTISRDNAKNTGYLQMNSLKPEDTAVYYCATRQSWYPRWMDYWGQCTQVTVSS,high polyreactivity
11,QVQLVESGGGLVQAGGSLRLSCAASGFTFGSNAMGWYRQAPGKERELVAAINYSGVRTYYADSVKGRFTISRDNAKNTVYLQMNSLKPEDTAVYYCAKKRSKRISFDYWGQGTQVTVSS,high polyreactivity
12,QVQHVESGAGIVQAGGSLRLSCAASGSTFKRYAMGWYRQAPGKERELVAAITWRGGSTYYADSVKGRFTISRDNAKNTVYLLMNSLKPDDTAVYYCASDYVYRYDYWGQGTQVTVSS,high polyreactivity
13,QVQLVESGGGLVQAGGSLRLSCAASGSTFWAYVMGWYRQAPGKERELVAAISSGGTTNYADSVKGRFTISRDNAKNTVYLQMNSLKPEDTAVYYCAAEYPSVYYERFDYWGQGTQVTVSS,low polyreactivity
14,QVQLVESGGGLVQAGGSLRLSCAASGIILPYYAMGWYRQAPGKEREFVATISSDGTSTYYADSVKGRFTISRDNAKNTVYLQMNSLKPEDTAVYYCAARIRQNPGGDNSWGQGTQVTVSS,low polyreactivity
15,QVQLVESGGGLVQAGGSLRLSCAASGSIFAYNAMGWYRQAPGKEREFVAVITRSDDSTYADSVKGRFTISRDNAKNTVYLQMNSLKPEDTAVYYCAAEYYETPYASLGYDYWGQGTQVTVSS,low polyreactivity
16,QVQLVESGGGLVQAGGSLRLSCAASGFTFSLYDMGWYRQAPGKERQLVADINGSGGSTYYADSVKGRFTISRDNAKNTVYLQMNSLKPEDTAVYYCAAGPPSRWWYIVDYGYWGQGTQVTVSS,high polyreactivity
17,QVQLVESGGGLVQAGGSLRLSCAASGGIFNSNAMGWYRQAPGKEREFVAAITRSGTSTYYADSVKGRFTISRDNAKNSVYLQMNSLKPEDTAVYYWAADYRYRRYRGHVSNLYYWGQGTQVTVSS,low polyreactivity
18,QVQLEESGGGLVQAGGRLRLSCAASGSTFVDYAMGWYRQAPGKQRELVAAISWRGGSTYYADSVKGRFTISRDNAKKTVYLQMNSLKPEDTAVYYCAAEHSGRSPYGYGYWGQGTQVTVSS,high polyreactivity
19,QVQLVESGGGLVQAGGSLRLSCAASGLTSEGNAMGWYRQAPGKERELVAAIDYRGGSTYYADSVKGRFTISRDNAKNSVYLQMNSLKPEDTAVYYCAADYPRGYIDDGDYWGQGTQVTVSS,low polyreactivity
20,QVQLVESGGGLVQAGGSLRLSCAASGRIFHSYAMGWYRQAPGKERELVAAISSGGNTYYADSVKGRFTISRDNAKNTVYLQMNSLKPEDTAVYDCARDWDFLYDGFHSDSYEYWGQGTQVTVSS,low polyreactivity
21,QVQLVESGGGLVQAGGSLSLSCAASGSTFYPYAMGWYRQAPGTERELVAAISSGGSTSYADSVKGRFTISRDNAKNTVYLQMNSLKPEDTAVYYCAAEGPEIKYYYWGQGTQVTVSL,low polyreactivity

row,Sequence,polyreactivity (PSR sort gate)
1,QVQLVESGGGLVQAGGSLRLLCAASGSTIVTNAMGWYRQAPGKERELVAAITSSDGITYYADSVKGRFTISRDNAKNTVYLQMNSLKPEDTAVYYCAAELVSVRYLYALHDRDYWGQGTQVTVSS,low polyreactivity
2,QVQLEESGGGLVQAGGSLRLSCAASGYTFFTNVMGWYRQAPGKERELVATITTGGSTYADSVKGRFTISRDNAKNTVYLQMNSLKPEDTAVYYCAVDALTGAWLGGYPYWADGYDYWGQGTQVTVSS,low polyreactivity
3,QVQLVESGGGLVQAGGSLRLSCAASGRIFYINDMGWYRQAHGKERELVAAISASGGSTYYADSVKGRFTISRDNAKNTVYLQMNSLKPEDTAVYYCAAVYFHPGYDLFDYWGQGTQVTVSS,low polyreactivity
4,QVQLVESGGGLVQAGGSLRLSCAASGSTFNRYAMGWYRQAPGKERELVAAITSTGGTNYADSVKGRFTISLDNAKNTVYLQMNSLKPEDTAVYYCAKRWLRWRSNYWGQGTQVTVSS,high polyreactivity
5,QVQLVESGGGLVQAGGSLRLSCAASGSIFTWYAMGWYRQAPGKETELVARINVSAGITYYADSVKGRFTISRDNAKNTVYLQMNSLKPEDTAVYYCAAEDFTRQFEYWGQGTQVTVSS,low polyreactivity
6,QVQLVESGGGLVQAGGSLRLSCAASGSTFRYYAMGGSRQEPGKESELVAVISTSGNTYYADSVKGRFTISRDNAKNSVYLQMNSLKPEDTAVYYCAARGVGGQISQEYDYWGQGTQVTVSS,low polyreactivity
7,QVQLVESGGGLVQAGGSLRLSCAASGSTFRVNAMGWYRQAPGKEREFVAGISFGGGSTYYADSVKGRFTISRDNAKNTVYLQMNSLKPEDTAVYYCNARGKGSGAVRYNYWGQGTQVTVSS,high polyreactivity
8,QVQLVDSGGGLVQAGGSLRLSCAASGRTFYDNDMGWYRQAPGKERELVARIRRGGNTKYADSVKGRFTISRDNAKNTVYLQMNSLKPEDTAVYYCNRDYGSKIYDYWGQGSQVTVSS,low polyreactivity
9,QVQLVESGGGLVQAGGSLRLSCAAYGSTFKSYAMGWYSQAPGKDRELVAAITHRGSTYYADSVKGRFTISRDNAKNTVYLQMNSLKPEDTAVYYCNVRRIGNGRRVDYWGQGTQVTVSS,high polyreactivity
10,QVQHVESGGGIVQAGGSLRLSCAASGSIFDRNAMGWYRPAPGQERELVASISWDGGNTYYADSVKGRFTISRDNSTNTVYLQMNSLKPEDTAVYYCAVDLYIWYDGYEYYYWGQGTQVTVSS,high polyreactivity
11,QVQLVESGGGLVQAGGSLRLSCAASGRTFTRYTMGWYRQAAGKERELVAAISYSGGSTYYADSVKGRFTISRDNAKNTVYLQMNSLKPEDTAVYYCAAASVRWPGYDYWGQGTQVTVSS,high polyreactivity
12,QVQLVESGGGLVQAGGSLRLSCAASGRIFRYYAMGWYRQAPGKERELVAGITIGGSTNYADSVKGRFTISRDNAKNTVYLLMISLKPEDTAVYYCAAVQHDENEYWGQGTQVTVSS,low polyreactivity
13,QVQLVESGGGLVKAGGSLRLSCAASGRNFWFNAMGWYRQAPGKERELVAAIRNRGGSTYYADSVKGRFTISRDNAKNTVYLQMNSLKPEDTAVYYCARAPEGTGGKYGYWGQGTQVTVSS,high polyreactivity
14,QVQLVESGGGLVQAGGSLRLSCAASGRIFIGYAMGWYRQAPGKERELVAAISRSGGSTYYADSVKGRFTISRDNAKYTVYLQMNSLKPEDTAVYYCAASPPFGYYYWGQGTQVTVSS,high polyreactivity
15,QVQLVESGGGLDQAGGSLRLSCAASGSIYYTAMGWYRQAPGKERELVASISTGDSTDYADSVKGRFTISRDNAKNTVYLQMNSLKPEDTAVYYCAADTRLGYWDDYWGQGTQVTVSS,low polyreactivity
16,QVQLVESGRGLVQAGGSLRLSCAASGNTLLKNAMGWYRQAPGKERELVAAISSSGGRTYYADSVKGRFTISRDNAKNTVYLQMNSLKQEDTAVYYCAARYPSGYYYWGQGTQVTVSS,high polyreactivity
17,QVQLVESGGGLVQAGGRLRLSCAASGSIFVKYAMGCYRHAPGKERELVATIRRSGTSTYYADSVKGRFTISRDNAMNTVYLQMNSLKPEDPAVYYCAALRSLLYRTYGYWGQGTQVTVSS,low polyreactivity
18,QVHLVESGGGFVQAGGSLRLICAASGITFGIYVMGWSRQAPGKERELVATISRSDDNSYYADSVKGRFTISRDNAKNTVYLQMNSLKPEDTAVYYCAADGVISAWYSSRDDYWGQGTQVTVSS,low polyreactivity
19,QVQLVESGGGLVQAGGSLRLSCAASGITFTLYAMGWYRQAPGKERELVASISWSGGSTYYADSVKGRFTISRDNAKNTVYLQMNSLKPEDTAVYYCNAVYARKYYYSHGYDYWGQGTQVTVSS,high polyreactivity
20,QVQLVESGGGLVQAGGSHRLSCAASGRIFRRYAMGWYRQARGQERELDAGITGSGTSTYYADSVKGRFTISRDNAKNTVYLQMNSLKPEDTAVYYCAADRGRGYRYNYWGQGTQVTVSS,high polyreactivity
